Data published in article PMC4490372, “Architecture of TFIIIC and its role in RNA polymerase III pre-initiation complex assembly” (Nature Communications, 2015).
Where a chain is given by its changes, count along the chain named. Blank lines part the entries; values can stand above or below the binder they belong to.

Assays:
[1] = target: T1, τ138 (Tfc3), τB subunit of endogenous S. cerevisiae TFIIIC (S. cerevisiae, UniProt P34111 1-1160); test: cross-linking; XL-MS: purified endogenous TFIIIC (30 μg, 1 μg/μl) cross-linked with H12/D12 DSS to 2 mM, 40 min at 37 °C; ld-score >25; conditions: both partners purified
T1 construct: τ138 (Tfc3), subunit of S. cerevisiae TFIIIC, endogenous subunit in the purified complex; source: endogenous, purified from S. cerevisiae strain SC2342 as part of TFIIIC (TAP tag on τ60)
T1 sequence (looked up): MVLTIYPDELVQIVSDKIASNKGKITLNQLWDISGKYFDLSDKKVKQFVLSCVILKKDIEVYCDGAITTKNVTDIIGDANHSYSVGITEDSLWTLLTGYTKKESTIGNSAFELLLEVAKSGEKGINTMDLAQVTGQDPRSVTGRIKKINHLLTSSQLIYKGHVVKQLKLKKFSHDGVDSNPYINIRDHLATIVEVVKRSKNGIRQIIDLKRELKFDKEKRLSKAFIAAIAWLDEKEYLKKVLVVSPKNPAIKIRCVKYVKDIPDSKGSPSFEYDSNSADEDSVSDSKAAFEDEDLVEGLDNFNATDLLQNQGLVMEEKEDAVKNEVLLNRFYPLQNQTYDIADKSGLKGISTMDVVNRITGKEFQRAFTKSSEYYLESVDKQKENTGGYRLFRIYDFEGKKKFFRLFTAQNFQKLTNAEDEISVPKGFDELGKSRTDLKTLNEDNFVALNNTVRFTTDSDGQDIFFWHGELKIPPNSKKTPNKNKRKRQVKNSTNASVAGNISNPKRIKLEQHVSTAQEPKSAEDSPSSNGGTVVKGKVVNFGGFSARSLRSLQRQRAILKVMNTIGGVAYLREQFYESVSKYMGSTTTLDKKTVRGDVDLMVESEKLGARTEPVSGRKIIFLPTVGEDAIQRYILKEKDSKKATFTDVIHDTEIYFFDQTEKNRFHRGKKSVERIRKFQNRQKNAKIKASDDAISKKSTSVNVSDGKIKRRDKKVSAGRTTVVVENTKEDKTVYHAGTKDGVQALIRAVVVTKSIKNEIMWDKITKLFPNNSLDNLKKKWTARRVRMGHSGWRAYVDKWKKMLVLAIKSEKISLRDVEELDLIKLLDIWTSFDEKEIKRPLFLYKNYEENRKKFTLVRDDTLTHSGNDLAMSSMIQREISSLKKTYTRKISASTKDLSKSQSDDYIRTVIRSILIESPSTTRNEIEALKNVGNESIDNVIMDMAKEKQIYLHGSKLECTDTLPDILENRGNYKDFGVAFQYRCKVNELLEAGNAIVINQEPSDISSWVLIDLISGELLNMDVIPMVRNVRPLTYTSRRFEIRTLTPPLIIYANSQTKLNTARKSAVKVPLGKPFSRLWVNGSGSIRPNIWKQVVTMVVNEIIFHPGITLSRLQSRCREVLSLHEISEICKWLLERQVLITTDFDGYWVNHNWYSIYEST

τ131 (123–566) E472K [2] = target: T2, τ131 (123–566) E472K (S. cerevisiae, UniProt P33339 123-566, E472K); test: ITC
T2 sequence: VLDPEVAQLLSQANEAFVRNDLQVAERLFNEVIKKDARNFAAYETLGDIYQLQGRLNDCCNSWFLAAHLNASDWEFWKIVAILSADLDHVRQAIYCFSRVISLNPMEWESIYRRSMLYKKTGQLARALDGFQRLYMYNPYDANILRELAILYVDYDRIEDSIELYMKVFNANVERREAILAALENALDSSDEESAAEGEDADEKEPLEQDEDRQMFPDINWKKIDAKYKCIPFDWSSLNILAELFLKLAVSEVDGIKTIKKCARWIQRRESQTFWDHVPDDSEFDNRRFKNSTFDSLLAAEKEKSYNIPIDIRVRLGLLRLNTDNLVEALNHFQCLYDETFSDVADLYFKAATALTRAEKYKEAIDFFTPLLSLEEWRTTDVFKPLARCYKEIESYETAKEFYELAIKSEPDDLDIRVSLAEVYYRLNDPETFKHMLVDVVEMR

τ131 (123–566) E498K [3] = target: T3, τ131 (123–566) E498K (S. cerevisiae, UniProt P33339 123-566, E498K); test: ITC
T3 sequence: T2 sequence with K350E, E376K

τ131 (123–566) E497K [4] = target: T4, τ131 (123–566) E497K (S. cerevisiae, UniProt P33339 123-566, E497K); test: ITC
T4 sequence: T2 sequence with K350E, E375K

τ131 (123–566) E472K [5] = target: T5, τ131 (123–566) E472K (S. cerevisiae, UniProt P33339 123-566, E472K); test: ITC; MicroCal ITC200; 15 μM τ138 in the cell, 150 μM τ131 in the syringe; 20 mM Tris pH 7.5, 150 mM NaCl, 2 mM β-mercaptoethanol; 25 °C; conditions: both partners purified
T5 construct: source: E. coli, purified by the same method as the wild type; not shown: His6, N-terminal, cleaved
T5 sequence (looked up): T2 sequence

τ131 (123–566) E498K [6] = target: T6, τ131 (123–566) E498K (S. cerevisiae, UniProt P33339 123-566, E498K); test: as above; conditions: both partners purified
T6 construct: source: E. coli, purified by the same method as the wild type; not shown: His6, N-terminal, cleaved
T6 sequence (looked up): T2 sequence with K350E, E376K

[7] = target: T7, τ131 (123–566), TPR array, wild type (S. cerevisiae, UniProt P33339 123-566); test: as above; conditions: both partners purified
T7 construct: also called τ131 TPR array; source: E. coli BL21 Star (DE3) pRARE, purified (Ni-NTA, TEV cleavage, S200 SEC); not shown: His6, N-terminal, cleaved
T7 sequence (looked up): T2 sequence with K350E

τ131 (123–566) E497K [8] = target: T8, τ131 (123–566) E497K (S. cerevisiae, UniProt P33339 123-566, E497K); test: as above; conditions: both partners purified
T8 construct: source: E. coli, purified by the same method as the wild type; not shown: His6, N-terminal, cleaved
T8 sequence (looked up): T2 sequence with K350E, E375K

binding result [1]: binds
B1: τ91 (Tfc6), τB subunit of endogenous S. cerevisiae TFIIIC (natural protein, UniProt Q06339 1-672, looked up)
chain: MAVIPAKKRGRPRKSVVAEVPYDSLASPVSENSGSKRPRRNASKKAVANFAQLVHAGRDDVINTTQVNNVDDTDDDDFVLNDEGDGEESDNVEIEFENELESTKNEVADLNSSGSGASVRPSGRRNTVQKLRLKKNSTKNMKSSSPGSSLGQKGRPIRLLKDLSSARDKIERIYGLNKEKLLLLAKVKEGFETSVFDFPFKNIQPDSPYFVCLDPPCKKESAYNKVIGDKNRTVYHEINKTEFENMIKLRTKRLKLLIGEVDAEVSTGDKIEFPVLANGKRRGFIYNVGGLVTDIAWLNIEENTDIGKDIQYLAVAVSQYMDEPLNEHLEMFDKEKHSSCIQIFKMNTSTLHCVKVQTIVHSFGEVWDLKWHEGCHAPHLVGCLSFVSQEGTINFLEIIDNATDVHVFKMCEKPSLTLSLADSLITTFDFLSPTTVVCGFKNGFVAEFDLTDPEVPSFYDQVHDSYILSVSTAYSDFEDTVVSTVAVDGYFYIFNPKDIATTKTTVSRFRGSNLVPVVYCPQIYSYIYSDGASSLRAVPSRAAFAVHPLVSRETTITAIGVSRLHPMVLAGSADGSLIITNAARRLLHGIKNSSATQKSLRLWKWDYSIKDDKYRIDSSYEVYPLTVNDVSKAKIDAHGINITCTKWNETSAGGKCYAFSNSAGLLTLEYLS
notes: τ91 (Tfc6), subunit of S. cerevisiae TFIIIC, endogenous subunit in the purified complex; source: endogenous, purified from S. cerevisiae strain SC2342 as part of TFIIIC (TAP tag on τ60)

Kd (τ131 (123–566) E472K [2]): 833 nM
Kd (τ131 (123–566) E498K [3]): 833 nM
Kd (τ131 (123–566) E497K [4]): 89 nM
binding result (τ131 (123–566) E472K [5]): binds
binding result (τ131 (123–566) E498K [6]): binds
Kd [7]: ~80 nM
binding result (τ131 (123–566) E497K [8]): binds
B2: τ138 (641–693), τ131-Interaction Region (τIR) (domain or fragment, S. cerevisiae, UniProt P34111 641-693, looked up)
chain: SKKATFTDVIHDTEIYFFDQTEKNRFHRGKKSVERIRKFQNRQKNAKIKASDD
notes: The cloning and tag of this construct as used for ITC and SEC are not described; also called τ138 (τIR); unstructured region of τ138; source: purified; expression of this construct not described

Kd [7]: ~2600 nM
B3: τ138 construct with residues 682–693 removed (domain or fragment)
chain: SARSLRSLQRQRAILKVMNTIGGVAYLREQFYESVSKYMGSTTTLDKKTVRGDVDLMVESEKLGARTEPVSGRKIIFLPTVGEDAIQRYILKEKDSKKATFTDVIHDTEIYFFDQTEKNRFHRGKKSVERIRKFQN

binding result [1]: binds
B4: τ131 (Tfc4), τA subunit of endogenous S. cerevisiae TFIIIC (natural protein, UniProt P33339 1-1025, looked up)
chain: MAAGKLKKEQQNQSAERESADTGKVNDEDEEHLYGNIDDYKHLIQDEEYDDEDVPHDLQLSEDEYNSERDSSLLAEFSDYGEISEDDEEDFMNAIREASNFKVKKKKKNDKGKSYGRQRKERVLDPEVAQLLSQANEAFVRNDLQVAERLFNEVIKKDARNFAAYETLGDIYQLQGRLNDCCNSWFLAAHLNASDWEFWKIVAILSADLDHVRQAIYCFSRVISLNPMEWESIYRRSMLYKKTGQLARALDGFQRLYMYNPYDANILRELAILYVDYDRIEDSIELYMKVFNANVERREAILAALENALDSSDEESAAEGEDADEKEPLEQDEDRQMFPDINWKKIDAKYKCIPFDWSSLNILAELFLKLAVSEVDGIKTIKKCARWIQRRESQTFWDHVPDDSEFDNRRFKNSTFDSLLAAEKEKSYNIPIDIRVRLGLLRLNTDNLVEALNHFQCLYDETFSDVADLYFEAATALTRAEKYKEAIDFFTPLLSLEEWRTTDVFKPLARCYKEIESYETAKEFYELAIKSEPDDLDIRVSLAEVYYRLNDPETFKHMLVDVVEMRKHQVDETLHRISNEKSSNDTSDISSKPLLEDSKFRTFRKKKRTPYDAERERIERERRITAKVVDKYEKMKKFELNSGLNEAKQASIWINTVSELVDIFSSVKNFFMKSRSRKFVGILRRTKKFNTELDFQIERLSKLAEGDSVFEGPLMEERVTLTSATELRGLSYEQWFELFMELSLVIAKYQSVEDGLSVVETAQEVNVFFQDPERVKMMKFVKLAIVLQMDDEEELAENLRGLLNQFQFNRKVLQVFMYSLCRGPSSLNILSSTIQQKFFLRQLKAFDSCRYNTEVNGQASITNKEVYNPNKKSSPYLYYIYAVLLYSSRGFLSALQYLTRLEEDIPDDPMVNLLMGLSHIHRAMQRLTAQRHFQIFHGLRYLYRYHKIRKSLYTDLEKQEADYNLGRAFHLIGLVSIAIEYYNRVLENYDDGKLKKHAAYNSIIIYQQSGNVELADHLMEKYLSI
notes: τ131 (Tfc4), subunit of S. cerevisiae TFIIIC, endogenous subunit in the purified complex; Endogenous subunit; source: endogenous, purified from S. cerevisiae strain SC2342 as part of TFIIIC (TAP tag on τ60)
